According to patent US20230242675A1 (SHANGHAI EPIMAB BIOTHERAPEUTICS, published 2023):

Columns and labels:
[1] = target: T1, human PD-L1/His fusion protein (human, UniProt Q9NZQ7 19-239); assay: BLI Octet Red, binding protein on AHC sensor, PD-L1-his in solution
Description: Sensors were then dipped into running buffer (1×pH 7.2 PBS, 0.05% Tween 20, 0.1% BSA) for 60 seconds to check baseline. Binding was measured by dipping sensors into a series diluted concentration of recombinant human PD-L1-his protein. Dissociation was followed by dipping sensors into running buffer for 1200 seconds. The association and dissociation curves were fitted to a 1:1 Langmuir binding model using ForteBio Data Analysis software (Pall). The equilibrium dissociation constant KD (M) of the reaction between antibodies and related target proteins was then calculated from the kinetic rate constants using the formula KD=koff/kₒₙ.

human TGFβ1 = target: T2, human TGFβ1 (human, UniProt P01137 279-390); assay: ELISA: human TGFβ1 coated (1 µg/ml), binding protein titrated 0.0006-10 nM, anti-human IgG Fc-HRP, OD450
T2 construct: also called TGFβ isoform 1; TGFβ1 (Cat. No. CA59, Novoprotein)
T2 sequence (P01137 279-390 limits assumed): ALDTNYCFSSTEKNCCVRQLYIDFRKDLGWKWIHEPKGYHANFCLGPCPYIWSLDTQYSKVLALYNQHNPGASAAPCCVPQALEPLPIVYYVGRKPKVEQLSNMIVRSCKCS
Description: (§1) Accordingly, each of the wells of the ELISA microplates provided a reaction mixture to test the ability of a particular binding protein at a particular concentration to bind to a particular TGFβ isoform. […] Plates were washed three times in washing buffer (PBS containing 0.05% Tween 20) and blocked for 1 hour at 37° C. with 200 μl per well of blocking buffer (1% BSA in PBS containing 0.05% Tween 20). […] The wells containing the various binding mixtures were incubated at 37° C. for 1 hour to permit binding to TGFβ protein on the surface of the wells. Thereafter, the wells were washed four times with washing buffer, and anti-human IgG Fc HRP (Sigma, Catalog No. A0170) was diluted 1:10000 and added to the wells at 100 μl per well to detect binding protein that was bound to TGFβ protein present on the surface of a well. The plates were incubated for 1 hour at 37° C. and washed four times with washing buffer. 100 μl of tetramethylbenzidine (TMB) chromogenic solution were added per well. Following color development, the reaction was stopped with 1 N HCl, and absorbance at 450 nm (OD450) was measured on a VARIOSKAN™ LUX microplate reader (Thermo Scientific™).

human TGFβ2 = target: T3, human TGFβ2 (human, UniProt P61812 303-414); assay: ELISA: human TGFβ2 coated (1 µg/ml), binding protein titrated 0.0006-10 nM, anti-human IgG Fc-HRP, OD450
T3 construct: also called TGFβ isoform 2; TGFβ2 (Cat. No. CJ79, Novoprotein)
T3 sequence (looked up): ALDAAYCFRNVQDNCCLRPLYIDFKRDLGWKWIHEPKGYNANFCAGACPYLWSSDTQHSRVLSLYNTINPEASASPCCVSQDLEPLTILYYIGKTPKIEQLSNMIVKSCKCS
Description: as §1

[2] = target: T4, biotinylated human PD-L1 protein (ACROBiosystems, H82E5) (human, UniProt Q9NZQ7 19-238, biotinylated (site not stated)); assay: dual-binding ELISA: human TGFβ1 coated, 5 nM binding protein bound to it, biotinylated human PD-L1 titrated 0.0006-10 nM (axis labelled Ab (nM)), streptavidin-HRP, OD450; the EC50 is of the titrated PD-L1
T4 construct: also called biotinylated PD-L1
T4 sequence (Q9NZQ7 19-238 limits assumed): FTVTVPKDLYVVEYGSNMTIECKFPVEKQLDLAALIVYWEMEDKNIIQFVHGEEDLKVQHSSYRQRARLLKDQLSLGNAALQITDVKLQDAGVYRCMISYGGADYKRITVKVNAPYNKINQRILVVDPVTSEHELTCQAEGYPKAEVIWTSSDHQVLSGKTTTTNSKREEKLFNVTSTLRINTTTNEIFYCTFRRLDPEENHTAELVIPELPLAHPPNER
Description: (§2) Briefly, ELISA plates were incubated overnight at 4° C. with 100 μl of a human TGFβ isoform diluted in PBS buffer, pH 7.4, at 1 μg/ml, to allow the human TGFβ isoform to coat (adsorb to) the surface of the wells. Plates were washed three times in washing buffer (PBS containing 0.05% Tween 20) and blocked for 1 hour at 37° C. with 200 μl per well blocking buffer (1% BSA in PBS containing 0.05% Tween 20). […] The wells were washed four times with washing buffer, and Streptavidin-HRP (Merck, RABHRP3) was diluted 1:10000 and added to the wells at 100 μl per well. The plates were incubated for 1 hour at 37° C. and washed four times in washing buffer. 100 μl of tetramethylbenzidine (TMB) chromogenic solution were added per well.

[3] = target: T4, biotinylated human PD-L1 protein …; assay: dual-binding ELISA: human TGFβ2 coated, 5 nM binding protein bound to it, biotinylated human PD-L1 titrated 0.0006-10 nM (axis labelled Ab (nM)), streptavidin-HRP, OD450; the EC50 is of the titrated PD-L1
Description: as §2

[4] = target: T4, biotinylated human PD-L1 protein …; assay: dual-binding ELISA: human TGFβ3 coated, 5 nM binding protein bound to it, biotinylated human PD-L1 titrated 0.0006-10 nM (axis labelled Ab (nM)), streptavidin-HRP, OD450; the EC50 is of the titrated PD-L1
Description: as §2

[5] = target: T1, human PD-L1/His fusion protein; assay: BLI off-rate; test group 4
Description: (§3) Briefly, antibodies were characterized for affinities and binding kinetics by Octet®RED96 biolayer interferometry (Pall ForteBio LLC). Antibodies were captured by Anti-hIgG Fc Capture (AHC) Biosensors (Pall) at a concentration of 100 nM for 30 seconds. Sensors were then dipped into running buffer (1×pH 7.2 PBS, 0.05% Tween 20, 0.1% BSA) for 60 seconds to check baseline. Binding was measured by dipping sensors into a single concentration of recombinant human PD-L1/His fusion protein (Novoprotein). Dissociation was followed by dipping sensors into running buffer for 1200 seconds. The association and dissociation curves were fitted to a 1:1 Langmuir binding model using ForteBio Data Analysis software (Pall). […] The off-rate ratio serves as a data normalization. Accordingly, in each test group, the off-rate ratios of the humanized antibodies can be compared with that of the chimeric antibody, and the off-rate ratios of each of the humanized antibodies can be compared to one another within all test groups.

[6] = target: T1, human PD-L1/His fusion protein; assay: BLI Octet RED96, antibody on AHC sensor, single conc. PD-L1/His; test group 4; test group 4
Description: as §3

T1 sequence (Q9NZQ7 19-239 limits assumed): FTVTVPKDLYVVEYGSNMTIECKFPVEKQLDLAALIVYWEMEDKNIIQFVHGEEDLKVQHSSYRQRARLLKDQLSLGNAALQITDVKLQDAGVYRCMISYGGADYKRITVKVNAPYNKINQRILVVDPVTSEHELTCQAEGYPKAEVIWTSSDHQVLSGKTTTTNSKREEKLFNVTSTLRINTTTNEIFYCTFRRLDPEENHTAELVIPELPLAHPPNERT

B1: FIT1012-7a TGFβ/PD-L1 bispecific binding protein (bispecific antibody, human IgG1, kappa)
heavy: not shown
chain: TIPPHVQKSVNNDMIVTDNNGAVKFPQLCKFCDVRFSTCDNQKSCMSNCSITSICEKPQEVCVAVWRKNDENITLETVCHDPKLPYHDFILEDAASPKCIMKEKKKPGETFFMCSCSSDECNDNIIFSEEYNTSNPDASTKGPSVFPLAPSSKSTSGGTAALGCLVKDYFPEPVTVSWNSGALTSGVHTFPAVLQSSGLYSLSSVVTVPSSSLGTQTYICNVNHKPSNTKVDKKVEPKSC
light: DIQLTQSPSFLSASVGDRVTITCKASQDVGTAVAWYQQKPGKAPKLLIYWASTRHTGVPSRFSGSGSGTEFTLTISSLQPEDFATYYCQQYSSYPYTFGQGTKLEIKRTVAAPSVFIFPPSDEQLKSGTASVVCLLNNFYPREAKVQWKVDNALQSGNSQESVTEQDSKDSTYSLSSTLTLSKADYEKHKVYACEVTHQGLSSPVTKSFNRGEC
notes: Six-chain protein; anti-PD-L1 moiety from HuEM0005-90-1 with G55A; four TGFβR2(ECD) traps
- Kd [1]: < 0.01 nM
- EC50 (human TGFβ1): 0.374 nM
- EC50 (human TGFβ2): 0.833 nM
- EC50 [2]: 0.275 nM
- EC50 [3]: 0.262 nM
- EC50 [4]: 0.262 nM

B2: HuEM0005-90-19 (antibody, human IgG1, V domains shown)
VH: EVQLVQSGAEVKKPGASVKVSCKTSGYTFTSHSINWVRQATGQGLEWMGYMYIGNGYTEYNEKFKGRVTMTSNTSISTAYMELSSLRSEDTAVYYCAKITPVVAPYVMDYWGQGTSVTVSS
VL: DIVMTQSPSFLSASVGDRVTITCKASQDVGTAVAWYQQKPGKAPKLLIYWASTRHTGVPDRFTGSGSGTDFTLTISSLQPEDFATYYCQQYSSYPYTFGQGTKLEIK
- Off-Rate Ratio to that of EM0005-90c [5]: 146%
- koff [6]: 0.00328 s⁻¹
